Data from US12006343B2, “C4BP-based compounds for treating immunological diseases” (FUNDACIO INSTITUT D'INVESTIGACIO BIOMEDICA DE BELLVITGE …, priority 2017, dated 2024).

Assays:
[1] = tested on: human monocyte-derived DCs; test: Immunomodulatory activity over human monocyte-derived DCs: CD83/CD86 surface expression by flow cytometry after LPS maturation; assay type: cell-based; settings: MoDCs pre-incubated with 5 μg/ml protein, LPS challenge; FIG. 4
[2] = tested on: human monocyte-derived DCs; settings: negative control; Olivar et al. 2013; cited from earlier work

B1: C4BP(β+): major C4BP α7β1 plus minor C4BP α6β1 isoforms (in complex with ProS) purified from pooled human plasma; negative control (protein, UniProt P04003 49-597; P20851 18-252, looked up)
C4b-binding protein alpha …: NCGPPPTLSFAAPMDITLTETRFKTGTTLKYTCLPGYVRSHSTQTLTCNSDGEWVYNTFCIYKRCRHPGELRNGQVEIKTDLSFGSQIEFSCSEGFFLIGSTTSRCEVQDRGVGWSHPLPQCEIVKCKPPPDIRNGRHSGEENFYAYGFSVTYSCDPRFSLLGHASISCTVENETIGVWRPSPPTCEKITCRKPDVSHGEMVSGFGPIYNYKDTIVFKCQKGFVLRGSSVIHCDADSKWNPSPPACEPNSCINLPDIPHASWETYPRPTKEDVYVVGTVLRYRCHPGYKPTTDEPTTVICQKNLRWTPYQGCEALCCPEPKLNNGEITQHRKSRPANHCVYFYGDEISFSCHETSRFSAICQGDGTWSPRTPSCGDICNFPPKIAHGHYKQSSSYSFFKEEIIYECDKGYILVGQAKLSCSYSHWSAPAPQCKALCRKPELVNGRLSVDKDQYVEPENVTIQCDSGYGVVGPQSITCSGNRTWYPEVPKCEWETPEGCEQVLTGKRLMQCLPNPEDVKMALEVYKLSLEIEQLELQRDSARQSTLDKEL
C4b-binding protein beta chain: SDAEHCPELPPVDNSIFVAKEVEGQILGTYVCIKGYHLVGKKTLFCNASKEWDNTTTECRLGHCPDPVLVNGEFSSSGPVNVSDKITFMCNDHYILKGSNRSQCLEDHTWAPPFPICKSRDCDPPGNPVHGYFEGNNFTLGSTISYYCEDRYYLVGVQEQQCVDGEWSSALPVCKLIQEAPKPECEKALLAFQESKNLCEAMENFMQQLKESGMTMEELKYSLELKKAELKAKLL
modifications: in complex with protein S
notes: major C4BP α7β1 plus minor C4BP α6β1 isoforms (in complex with ProS) purified from pooled human plasma; negative control
- semi-mature, anti-inflammatory phenotype conferred to LPS-matured MoDCs (immunomodulatory activity) [1]: inactive
- immunomodulatory activity [2]: no immunomodulatory activity
